This assay has as its target human Fc gamma receptor 1A (human) (UniProt P12314). Kind of assay: SPR (Biacore T200), antibody amine-coupled on CM5 chip, receptor as analyte. On the technique in general: Surface plasmon resonance follows binding to a sensor surface in real time, without labels.

The values below come from patent publication US20240025993A1, “CD19 BINDING MOLECULES AND USES THEREOF” (NOVARTIS AG, priority 2020, published 2024).

Sequence of human Fc gamma receptor 1A (human) (P12314 16-288 limits assumed): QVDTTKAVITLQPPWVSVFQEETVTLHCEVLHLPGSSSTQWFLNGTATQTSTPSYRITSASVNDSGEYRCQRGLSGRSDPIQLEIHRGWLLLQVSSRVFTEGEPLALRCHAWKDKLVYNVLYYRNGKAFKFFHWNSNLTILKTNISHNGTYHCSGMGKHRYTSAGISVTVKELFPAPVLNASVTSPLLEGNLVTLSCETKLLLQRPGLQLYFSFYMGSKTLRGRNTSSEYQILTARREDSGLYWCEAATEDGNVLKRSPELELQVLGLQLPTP

Substance “Anti-CD3 human IgG1 antibody, DANAPA Fc variant (D265A/N297A/P329A)” returned a Maximum response at 100 nM hFcgammaRIA (RU) of 11 RU.
“Anti-CD3 human IgG1 antibody, DAPASK Fc variant (D265A/P329A/S267K)” returned a Maximum response at 100 nM hFcgammaRIA (RU) of 13 RU.
“Anti-CD3 human IgG1 antibody, GADAPA Fc variant (G237A/D265A/P329A)” gave a Maximum response at 100 nM hFcgammaRIA (RU) of 16 RU.
With “Anti-CD3 human IgG1 antibody, GADAPASK Fc variant (G237A/D265A/P329A/S267K)”, the Maximum response at 100 nM hFcgammaRIA (RU) came out at 10 RU.
In turn, “Anti-CD3 human IgG1 antibody, LALAGA Fc variant (L234A/L235A/G237A)” registered a Maximum response at 100 nM hFcgammaRIA (RU) of 15 RU.
Next, “Anti-CD3 human IgG1 antibody, LALAPG Fc variant (L234A/L235A/P329G)”: 18 RU.
The same measure for “Anti-CD3 human IgG1 antibody, LALASKPA Fc variant (L234A/L235A/S267K/P329A)”: 9 RU.
